Like-named read-outs stand apart in the source and are kept apart here. No end group written: not given here.

Data set [1] can be described thus: biological activity of amidated recombinant hormones versus synthetic hormone.
A further data set concerns the target T1, alpha-amidating enzyme (Rattus norvegicus, UniProt P14925).
T1 sequence (P14925 36-976): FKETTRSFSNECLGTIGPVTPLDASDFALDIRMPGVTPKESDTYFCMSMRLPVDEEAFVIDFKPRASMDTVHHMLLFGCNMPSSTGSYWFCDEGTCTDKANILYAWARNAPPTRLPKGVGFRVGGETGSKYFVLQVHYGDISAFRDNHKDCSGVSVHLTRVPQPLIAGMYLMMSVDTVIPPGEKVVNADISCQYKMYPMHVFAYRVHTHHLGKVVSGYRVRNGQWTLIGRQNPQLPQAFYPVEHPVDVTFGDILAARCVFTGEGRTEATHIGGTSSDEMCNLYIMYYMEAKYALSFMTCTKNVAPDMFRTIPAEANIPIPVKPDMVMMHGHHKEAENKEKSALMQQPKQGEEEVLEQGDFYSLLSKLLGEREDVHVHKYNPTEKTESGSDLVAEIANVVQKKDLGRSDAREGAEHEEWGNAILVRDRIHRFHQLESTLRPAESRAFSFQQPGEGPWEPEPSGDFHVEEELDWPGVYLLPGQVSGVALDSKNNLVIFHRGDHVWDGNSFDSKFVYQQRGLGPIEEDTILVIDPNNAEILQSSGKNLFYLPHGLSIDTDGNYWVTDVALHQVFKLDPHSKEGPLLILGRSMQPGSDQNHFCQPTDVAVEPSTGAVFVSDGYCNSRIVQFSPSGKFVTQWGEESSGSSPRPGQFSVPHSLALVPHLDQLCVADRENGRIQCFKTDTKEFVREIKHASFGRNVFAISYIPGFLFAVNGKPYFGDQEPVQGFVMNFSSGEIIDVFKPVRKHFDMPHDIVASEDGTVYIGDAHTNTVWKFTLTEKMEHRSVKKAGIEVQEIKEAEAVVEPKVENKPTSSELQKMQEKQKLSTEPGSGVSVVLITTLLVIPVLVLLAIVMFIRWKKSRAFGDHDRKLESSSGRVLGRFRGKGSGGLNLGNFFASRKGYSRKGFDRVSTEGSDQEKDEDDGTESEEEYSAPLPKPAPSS
Kind of data set: co-factor requirement of alpha-amidating enzyme for maximal activity. Type of data set: biochemical.

Data set [2] in a line: iso-electric point of alpha-amidating enzyme. Type of data set: physicochemical.
The nature of data set [3]: specific alpha-amidating activity, conversion of Dansyl-D-Tyr-Val-Gly to Dansyl-D-Tyr-Val-CONH2. Type of data set: biochemical. The settings on record: homogeneous peak III enzyme, rat MTC tumor. The protocol:
These and other objects will become apparent from a thorough reading of the present disclosure. […] All specific activity units set forth herein are based upon the conversion of Dansyl-D-Try-Val-Gly-COOH to Dansyl-D-Tyr-Val-CONH2. One mU is defined as the amount of activity needed to convert one nanomole (nmole) of Dansyl-D-Tyr-Val-Gly-COOH to one nmole of Dansyl-D-Tyr-Val-CONH2 per minute at 37° C. and pH 7.0 in the presence of ascorbate ions at a concentration of 3 mM (based on total reaction mixture including enzyme, substrate, co-factors, etc.), molecular oxygen in a molar excess over substrate and a concentration of cupric ions effective to maximize activity (usually about 2 μM depending on the state of purity of the enzyme).
Each purification step can be monitored for both protein content and the level of alpha-amidation activity. This information is used to calculate the specific activity of the enzyme which serves as an indicator of the relative purity of the enzyme.
Sephacryl S-300 (Pharmacia) was equilibrated in 50 mM Tris HCl pH 7.0 and poured into a K 50/100 column (Pharmacia) according to the manufacturer's instructions. The bed volume of the column was approximately 1.3 liters. The Sample was loaded onto the column in a volume representing approximately 3 percent of the bed volume of the column. Proteins were eluted from the column in 50 mM Tris HCl pH 7.0 at a flow rate of approximately 2 ml per minute.
The reaction mixture for the conversion of the monodansyl substrate contained:
The samples were prepared in duplicate and incubated at 37° C. for 10, 20 and 30 minutes time periods. The enzymatic reaction was halted by the addition of 10 ul 500 mM EDTA.

A short description of data set [4]: pH optimum of alpha-amidating enzyme. Type of data set: biochemical. The settings on record: rat MTC tumor enzyme, N dansyl Tyr-Val-Gly substrate. The protocol:
2. The optimum pH for the activity of the enzyme was determined to be pH 5.0-5.5 using N dansyl Tyr-Val-Gly as the substrate (FIG. XVI). However, due to the enhanced stability of the enzyme at neutral pH, it may be beneficial to carry out the amidation reaction at such pH.

The conditions of data set [5]: cited from earlier work.

For the molecule “recombinant hGHRF: recombinant, alpha-amidated human growth hormone releasing factor (YADAIFTNSYRKVLGQLSARKLLQDIMSRQQGESNQERGARARL-NH2; UniProt P01286 32-75, looked up)”, in data set [1], the “biological activity (and characterization) compared with synthetic hormone” value is on record as “indistinguishable from synthetic hGHRF”.

For the molecule “recombinant human calcitonin: purified alpha-amidated recombinant human calcitonin (CGNLSTCMLGTYTQDFNKFHTFPQTAIGVGAP-NH2; ends and bridges not checked; UniProt P01258 85-116, looked up)”, the “biological activity (and characterization) compared with synthetic hormone” value in data set [1] is recorded as “indistinguishable from synthetic human calcitonin”.

B1: peak III enzyme (MTC tumor): MTC tumor alpha-amidating enzyme peak eluting at 220 mM NaCl from Mono Q pH 6.0, purified to homogeneity (protein, UniProt P14925 36-976, looked up)
Peptidylglycine …: FKETTRSFSNECLGTIGPVTPLDASDFALDIRMPGVTPKESDTYFCMSMRLPVDEEAFVIDFKPRASMDTVHHMLLFGCNMPSSTGSYWFCDEGTCTDKANILYAWARNAPPTRLPKGVGFRVGGETGSKYFVLQVHYGDISAFRDNHKDCSGVSVHLTRVPQPLIAGMYLMMSVDTVIPPGEKVVNADISCQYKMYPMHVFAYRVHTHHLGKVVSGYRVRNGQWTLIGRQNPQLPQAFYPVEHPVDVTFGDILAARCVFTGEGRTEATHIGGTSSDEMCNLYIMYYMEAKYALSFMTCTKNVAPDMFRTIPAEANIPIPVKPDMVMMHGHHKEAENKEKSALMQQPKQGEEEVLEQGDFYSLLSKLLGEREDVHVHKYNPTEKTESGSDLVAEIANVVQKKDLGRSDAREGAEHEEWGNAILVRDRIHRFHQLESTLRPAESRAFSFQQPGEGPWEPEPSGDFHVEEELDWPGVYLLPGQVSGVALDSKNNLVIFHRGDHVWDGNSFDSKFVYQQRGLGPIEEDTILVIDPNNAEILQSSGKNLFYLPHGLSIDTDGNYWVTDVALHQVFKLDPHSKEGPLLILGRSMQPGSDQNHFCQPTDVAVEPSTGAVFVSDGYCNSRIVQFSPSGKFVTQWGEESSGSSPRPGQFSVPHSLALVPHLDQLCVADRENGRIQCFKTDTKEFVREIKHASFGRNVFAISYIPGFLFAVNGKPYFGDQEPVQGFVMNFSSGEIIDVFKPVRKHFDMPHDIVASEDGTVYIGDAHTNTVWKFTLTEKMEHRSVKKAGIEVQEIKEAEAVVEPKVENKPTSSELQKMQEKQKLSTEPGSGVSVVLITTLLVIPVLVLLAIVMFIRWKKSRAFGDHDRKLESSSGRVLGRFRGKGSGGLNLGNFFASRKGYSRKGFDRVSTEGSDQEKDEDDGTESEEEYSAPLPKPAPSS
modifications: Mono Q peak III form
For B1, the “Cu++ required for maximal activity” value in the data set with alpha-amidating enzyme was not above 0.1 µM. For the same molecule, the “iso-electric point (pI)” value in data set [2] stood at 4.8. Further, the specific activity in data set [3] is listed as 2,100 mU/mg protein. Further, the pH optimum in data set [4] is given as 5.0-5.5.

B2: alpha-amidating enzyme from rat pituitaries: alpha-amidating enzyme partially purified from rat pituitaries (protein, UniProt P14925 36-976, looked up)
Peptidylglycine …: FKETTRSFSNECLGTIGPVTPLDASDFALDIRMPGVTPKESDTYFCMSMRLPVDEEAFVIDFKPRASMDTVHHMLLFGCNMPSSTGSYWFCDEGTCTDKANILYAWARNAPPTRLPKGVGFRVGGETGSKYFVLQVHYGDISAFRDNHKDCSGVSVHLTRVPQPLIAGMYLMMSVDTVIPPGEKVVNADISCQYKMYPMHVFAYRVHTHHLGKVVSGYRVRNGQWTLIGRQNPQLPQAFYPVEHPVDVTFGDILAARCVFTGEGRTEATHIGGTSSDEMCNLYIMYYMEAKYALSFMTCTKNVAPDMFRTIPAEANIPIPVKPDMVMMHGHHKEAENKEKSALMQQPKQGEEEVLEQGDFYSLLSKLLGEREDVHVHKYNPTEKTESGSDLVAEIANVVQKKDLGRSDAREGAEHEEWGNAILVRDRIHRFHQLESTLRPAESRAFSFQQPGEGPWEPEPSGDFHVEEELDWPGVYLLPGQVSGVALDSKNNLVIFHRGDHVWDGNSFDSKFVYQQRGLGPIEEDTILVIDPNNAEILQSSGKNLFYLPHGLSIDTDGNYWVTDVALHQVFKLDPHSKEGPLLILGRSMQPGSDQNHFCQPTDVAVEPSTGAVFVSDGYCNSRIVQFSPSGKFVTQWGEESSGSSPRPGQFSVPHSLALVPHLDQLCVADRENGRIQCFKTDTKEFVREIKHASFGRNVFAISYIPGFLFAVNGKPYFGDQEPVQGFVMNFSSGEIIDVFKPVRKHFDMPHDIVASEDGTVYIGDAHTNTVWKFTLTEKMEHRSVKKAGIEVQEIKEAEAVVEPKVENKPTSSELQKMQEKQKLSTEPGSGVSVVLITTLLVIPVLVLLAIVMFIRWKKSRAFGDHDRKLESSSGRVLGRFRGKGSGGLNLGNFFASRKGYSRKGFDRVSTEGSDQEKDEDDGTESEEEYSAPLPKPAPSS
modifications: partially purified
Take B2: the “enzyme activity outside pH 6.5-7.5” value in data set [5] (pH levels below 6.5 or above 7.5) is “declined rapidly”. For the same molecule, the pH optimum in data set [5] (pituitary, partially purified) is listed as 7.

B3: peak II enzyme (MTC tumor): MTC tumor alpha-amidating enzyme peak eluting at 200 mM NaCl from Mono Q pH 6.0 (protein, UniProt P14925 36-976, looked up)
Peptidylglycine …: FKETTRSFSNECLGTIGPVTPLDASDFALDIRMPGVTPKESDTYFCMSMRLPVDEEAFVIDFKPRASMDTVHHMLLFGCNMPSSTGSYWFCDEGTCTDKANILYAWARNAPPTRLPKGVGFRVGGETGSKYFVLQVHYGDISAFRDNHKDCSGVSVHLTRVPQPLIAGMYLMMSVDTVIPPGEKVVNADISCQYKMYPMHVFAYRVHTHHLGKVVSGYRVRNGQWTLIGRQNPQLPQAFYPVEHPVDVTFGDILAARCVFTGEGRTEATHIGGTSSDEMCNLYIMYYMEAKYALSFMTCTKNVAPDMFRTIPAEANIPIPVKPDMVMMHGHHKEAENKEKSALMQQPKQGEEEVLEQGDFYSLLSKLLGEREDVHVHKYNPTEKTESGSDLVAEIANVVQKKDLGRSDAREGAEHEEWGNAILVRDRIHRFHQLESTLRPAESRAFSFQQPGEGPWEPEPSGDFHVEEELDWPGVYLLPGQVSGVALDSKNNLVIFHRGDHVWDGNSFDSKFVYQQRGLGPIEEDTILVIDPNNAEILQSSGKNLFYLPHGLSIDTDGNYWVTDVALHQVFKLDPHSKEGPLLILGRSMQPGSDQNHFCQPTDVAVEPSTGAVFVSDGYCNSRIVQFSPSGKFVTQWGEESSGSSPRPGQFSVPHSLALVPHLDQLCVADRENGRIQCFKTDTKEFVREIKHASFGRNVFAISYIPGFLFAVNGKPYFGDQEPVQGFVMNFSSGEIIDVFKPVRKHFDMPHDIVASEDGTVYIGDAHTNTVWKFTLTEKMEHRSVKKAGIEVQEIKEAEAVVEPKVENKPTSSELQKMQEKQKLSTEPGSGVSVVLITTLLVIPVLVLLAIVMFIRWKKSRAFGDHDRKLESSSGRVLGRFRGKGSGGLNLGNFFASRKGYSRKGFDRVSTEGSDQEKDEDDGTESEEEYSAPLPKPAPSS
modifications: Mono Q peak II form
For B3, the “iso-electric point (pI)” value in data set [2] is given as “approximately 5.8”. In addition, the pH optimum in data set [4] is recorded as 5.0-5.5.
